Here are results for four substances from patent publication US10900903B2, “Protein structure analysis based on red-edge excitation shift (REES) spectroscopy” (UNIVERSITY OF BATH, priority 2016, dated 2021).

“And” between values parts separate entries of the source, which are not always exact repeats. Equal entries are not always repeated.

The nature of series [1]: QUBES values of native mAbs. Type of series: physicochemical. The note with it: native mAb. The text has this: First, the combined excitation and emission spectrum is monitored for each mAb giving a high information content fluorescence data set (FIG. 13A). […] A simpler exponential function is fitted, CSM=CSM0+Ae^RΔλ^Ex Eq 1.
Where CSM0 is the CSM value independent of the excitation wavelength, λEx, determined by the amplitude, A, of an exponential with a curvature determined by R. Fitting with this function instead of a Gaussian or other probability distribution dramatically improves the speed of data processing due to the lower dimensionality of the model but still retains the key aspects of the previous model, namely quantification of the magnitude of the fluorescence edge-shift. The plot of the resulting parameters yields a single three-dimensional data point (FIG. 13B, inset; the QUBES value), which is a direct quantification of the extremely complex spectral fingerprint shown in FIG. 13A.
All fluorescence measurements were performed using a Perkin Elmer LS50B Luminescence Spectrometer (Perkin Elmer, Waltham, Mass., USA) connected to a circulating water bath for temperature regulation (±1° C.). […] Tryptophan emission was monitored from 325 to 500 nm. […] The centre of spectral mass (CSM) was calculated using the following equation: […]
Where fi is the measured fluorescence intensity and Δem is the emission wavelength. […]

Series [2] can be described thus: REES of NEMO W6 Trp emission: native, denatured, crowded. The settings on record: for R0: y-intercept of Eq 2 fit. Type of series: physicochemical. On the procedure:
Typically the magnitude of the steady-state REES phenomenon is reported as the simple difference in CSM or ΔλEm^max. From FIG. 1, it is observed that a significant red shift in the emission spectra, with an increase in CSM of 17.7 nm and an increase in ΔλEm^max of 15 nm from λex 292-310 nm. Essentially the data are treated by the linear function: CSM=Rλex+CSM0 Eq 1.
Where R is the REES magnitude expressed as the change in CSM per nm of the excitation wavelength, λex.
The REES data in FIG. 2 can be best represented by a Gaussian probability distribution of the form:
Where A is the area, w is the full width at half-maximal (fwhm), m is the mid-point and R0 is the y-intercept and m=λREES^max, where λREES^max is the excitation wavelength that gives the largest change in the emission peak wavelength. The data in FIG. 2 are fit to Eq 2 and illustrate the low energy excitation at the red edge of the protein absorption spectrum. The fit of Eq 2 to the experimental data is excellent and captures the expected relationship described above.
In this case, the solvent relaxation will be very rapid and no REES effect observed, effectively because there is one discrete solvation state (fully solvated). NEMO is incubated in 6M guanidine to denature the protein and the corresponding change in the center of spectral mass (CSM) versus λex is shown in FIG. 3. The use of CSM is favoured instead of the magnitude of ΔλEm^max as this metric gives a more robust REES signal and the magnitude of may be highly error prone. However the results using ΔλEm^max are essentially the same. A decrease and red-shift in Trp emission is typically grossly correlated with denaturation of proteins. […] Note that this is not the REES effect but reflective of the solvent exposure of NEMO W6 on denaturation. […] Fitting to Eq 2 also gives a large decrease in the REES effect, A=0.37±0.4. The relative change in the REES effect is similar using either approach and this indicates strongly that a fitting approach using Eq 2 is robust.
Macromolecular crowding is a key feature of the intracellular milieu arising from the very high concentrations of other species in the cytosol. Crowding reduces the available solvent for other molecules in solution through the excluded volume effect, which effectively increase the concentration of, for example, protein and restricts the accessible conformational states through hard-core repulsions between the crowding agent and the protein. Macromolecular crowding can alter protein conformation, typically inducing folding and stabilization. Crowding therefore potentially provides a means to explore the contrasting physical effect of denaturation on the REES effect, where the protein is more folded/stabilized. A protein has been used as the crowding agent, Sbi (reported above), instead of a synthetic crowding agent since protein is much more consistent with the intracellular environment. […] Incubating NEMO with a high concentration of Sbi (20 mg/ml) gives a dramatic change to the both the absolute Trp emission and also the REES effect as shown in FIG. 3. […] Intriguingly, the REES effect is much larger in the crowded environment giving a relative increase in A of 2.24±0.51. […] This is consistent with the putative molecular model of NEMO activity that is based on allosterically regulated NEMO conformational change. Below, the potential mechanistic role of an increased number of available conformational states with respect to ligand interactions is described.
Full length human NEMO was expressed and purified essentially as described previously. Purified protein was dialysed extensively into a buffer comprising 50 mM Tris-Cl pH 8.0, 50 mM NaCl and 5 mM DTT. All measurements were made in this buffer unless otherwise stated. IKK-β and IκBα peptides were commercially synthesised by Genscript, having a purity of >98% and are of the sequence […] and […], respectively. […]

For series [3] the following is noted: pressure dependence of emission, ref [23]; cited from earlier work.
For series [4] the following is noted: previously found; cited from earlier work.
Series [5] can be described thus: High-pressure REES measurements. In kind it is physicochemical. The text has this: The CSM value is rather larger than reported for the denaturation study above (FIGS. 3A and 3B) and this is due to a different spectral window used to calculate the CSM for the pressure studies. This was necessary due to the optical setup of the pressure cell. […] Fitting the REES data to Eq 4 gives the pressure dependence of A, shown in FIG. 4D as the change in the fraction of A across the pressure range. […] The pressure dependence data can be adequately fit to a simple, phenomenological model that implies a single transition between two states with changing hydrostatic pressure as used previously:
Where Rp=83.13 cm3 mol^−1 bar K^−1 when the pressure, p, is measured in bar, K0 is the equilibrium constant for the change in the relative population of the ith conformational state represented by the magnitude of A from Eq 4, extrapolated to 0 bar and ΔVA is the apparent difference in the volume associated with this equilibrium transition.
The difference in sign is simply attributable to relative change in direction of the specific to signal. What is important is that the magnitude of ΔV is much larger for the REES effect compared to W6 emission. Indeed, this magnitude of pressure dependence is more consistent with global metrics of NEMO conformational change previously measured using the pressure dependence of 8-anilino naphthalene sulfonate (ANS) emission. The REES signal may therefore be reflective of the broader equilibrium of NEMO conformational states at sites distal to W6. […] The key finding from the pressure data in the present context is that the REES effect itself is pressure-dependent with the magnitude of A increasing with pressure.
An ISS high-pressure cell (ISS, Champaign, UL, USA), fitted with a custom fiber optic mounting to the fluorimeter and connected to a circulating water bath for temperature regulation was used to record all high-pressure measurements.
Where fi is the measured fluorescence intensity and λem is the emission wavelength. The importance of using a consistent wavelength range when reporting CSM data is stressed, as the magnitude will be dependent on the wavelength range chosen.

Series [6] is described as follows: QUBES of mAb unfolding in urea. Type of series: physicochemical. As for the experimental part: Changes in protein structure are accompanied by a change in the equilibrium of conformational states. It has been previously found with a model system, a ‘hub’ protein (described above), that by quantitating the curvature in REES data it is possible to capture information on unfolded states and ligand induced conformational change. It was explored whether the sensitive detection of differences in REES data could be useful for detecting subtle changes in protein structure in mAbs. It is tested whether the QUBES data can be used to identify unfolding and aggregation of the mAbs since these are key issues facing the development of biopharmaceuticals. […] The formation of soluble aggregates is monitored in the thermally denatured mAbs by dynamic light scattering (DLS), shown in FIG. 19.
The observed variance in the QUBES values for the denatured mAbs (FIG. 14A) may reflect the differing extent of unfolding or aggregation for each of the samples and the specific nature of the unfolded or aggregated states. […] The data therefore illustrate that these metrics ignore early stage changes to protein structure that are not captured by simple steady-state fluorescence emission measurements.
All fluorescence measurements were performed using a Perkin Elmer LS50B Luminescence Spectrometer (Perkin Elmer, Waltham, Mass., USA) connected to a circulating water bath for temperature regulation (±1° C.). […]

For Nivolumab: human therapeutic mAb, the “QUBES value (A, R), predicted rigidity/flexibility” value in series [1] is “high A and small R value”.
As to “NEMOnative: Full length human NF-κB essential modulator; W6 is its single intrinsic Trp residue”, in series [2] (absolute value), the “R (fit to Eq 1), change in CSM per nm of λex” value came to 0.96. The “A (REES magnitude, fit to Eq 2)” value in series [2] (relative to NEMO alone, native, denatured (6M guanidine), crowded (Sbi 20 mg/ml)) turned out to be 1 ± 0.1. The “R (fit to Eq 1), relative” value in series [2] (relative to NEMO alone, native, denatured, crowded) is on record as 1 ± 0.13. In addition, the R0 in series [2] (native, denatured, crowded) was determined as 363.2 ± 0.19 nm. The R0 in series [2] (native, denatured, crowded, listed as NEMO) was 363.2±0.19 nm. This substance also returned an R0 in series [2] (native, denatured, crowded, listed as native NEMO) of 363.2±0.19 nm. Further, in series [2] (λex 292-310 nm), the “increase in CSM (red shift)” value stood at 17.7 nm and the “increase in ΔλEm^max” value stood at 15 nm. In addition, the “ΔV for W6 (Trp) emission” value in series [3] was 0.81 cm3 mol^−1 and ~1.6±0.4 cm3 mol^−1. For the same substance, in series [4], the random coil content is given as ~40% and the α-helical content is ~50%. In addition, the “ΔλEm^max” value in series [5] (10° C., 1 bar, λex=295 nm) is listed as 348 nm. In series [5] (λex=292 nm), the “increase in W6 CSM with increasing pressure” value was 3.0 nm. Also, in series [5] (λex=310 nm), the “increase in CSM from 1 to 2000 bar” value amounted to 8.9 nm.
Turning to Tocilizumab: humanised therapeutic mAb, the “urea concentration at which a significant increase in CSM0 is observed” value in series [6] is recorded as 7 M. The “QUBES value shift on unfolding” value in series [6] (urea) was “larger R and smaller A value”.
For Pertuzumab: humanised therapeutic mAb, the “QUBES value (A, R), predicted rigidity/flexibility” value in series [1] is “small A and high R value”.
